Laboratory results: paper PMC12292525, “Identification, Cloning, and Functional Characterization of Carotenoid Cleavage Dioxygenase (CCD) from Olea europaea and Ipomoea nil” (Biology, 2025)

Tested on: CC1=C(/C=C/C(C)=C/C=C/C(C)=C/C=C/C=C(C)/C=C/C=C(\C)C=O)C(C)(C)CCC1
Test: beta-ionone formation, Michaelis-Menten nonlinear fit
Format: biochemical, Olea europaea
Details: optimal reaction conditions (pH 9.5 Gly-NaOH, 45 °C reported as optimum), O2 co-substrate
From the text: beta-ionone formation, Michaelis-Menten nonlinear fit on OeCCD1

OeCCD1 (Olea europaea var. sylvestris)
Km: 820 µM | Vmax: 2.3 µmol/min/mg | kcat: 3.35 s⁻¹ | kcat/Km: 4090 M⁻¹ s⁻¹
